# Data from patent US20260337278 (published 2026).
# Read-outs that look alike come from different tables or passages of the source.
# Legend:
# Experiment in all cases: BLI
# EGFRvIII [1] = biological target: T1, EGFRvIII (human, UniProt P00533)
# [2] = biological target: T2, EGFR (wild-type, His-tagged or biotinylated) (human, UniProt P00533)
# [3] = biological target: T2, EGFR (wild-type, His-tagged or …); remark: listed apart in the source
# EGFRvIII [4] = biological target: T1, EGFRvIII; remark: listed apart in the source
# EGFRvIII [5] = biological target: T1, EGFRvIII; remark: listed apart in the source
binder,measurement,setting,value
SI-95X55 (antibody) chain 1: not shown chain 2: DIVMTQSPSSVSLSLGDRVTITCHSSQDINSNIGWLQQKPGKAFKGLIYHGTNLDDGVPSRFSGSGSGADYTLTISSLQAEDFATYYCVQYAQFPWTFGPGTKLEIKRTVAAPSVFIFPPSDEQLKSGTASVVCLLNNFYPREAKVQWKVDNALQSGNSQESVTEQDSKDSTYSLSSTLTLSKADYEKHKVYACEVTHQGLSSPVTKSFNRGEC,Kd,EGFRvIII [1],7.67 nM
same,binding result,[2],no binding
SI-95X41 (antibody) chain 1: not shown chain 2: DILMTQSPSSMSVSLGDTVSITCHSSQDINSNIGWLQQRPGKSFKGLIYHGTNLDDEVPSRFSGSGSGADYSLTISSLESEDFADYYCVQYAQFPWTFGGGTKLEIKRTVAAPSVFIFPPSDEQLKSGTASVVCLLNNFYPREAKVQWKVDNALQSGNSQESVTEQDSKDSTYSLSSTLTLSKADYEKHKVYACEVTHQGLSSPVTKSFNRGEC,Kd,EGFRvIII [1],15.9 nM
same,binding result,[2],no binding
SI-95X19 (antibody) chain 1: not shown chain 2: DIQMTQSPSSLSASVGDRVTITCRSSQNIVHSNGNTYLDWYQQTPGKAPKLLIYKVSNRFSGVPSRFSGSGSGTDFTFTISSLQPEDIATYYCFQYSHVPWTFGQGTKLQITRTVAAPSVFIFPPSDEQLKSGTASVVCLLNNFYPREAKVQWKVDNALQSGNSQESVTEQDSKDSTYSLSSTLTLSKADYEKHKVYACEVTHQGLSSPVTKSFNRGEC,Kd,[3],5.01 nM
same,Kd,EGFRvIII [4],0.676 nM
SI-95X2 (antibody) chain 1: not shown chain 2: DIQMTQSPSSLSASVGDRVTITCRSSQNIVHSNGNTYLDWYQQTPGKAPKLLIYKVSNRFSGVPSRFSGSGSGTDFTFTISSLQPEDIATYYCFQYSHVPWTFGQGTKLQITRTVAAPSVFIFPPSDEQLKSGTASVVCLLNNFYPREAKVQWKVDNALQSGNSQESVTEQDSKDSTYSLSSTLTLSKADYEKHKVYACEVTHQGLSSPVTKSFNRGEC,Kd,[3],5.53 nM
same,Kd,EGFRvIII [4],1.15 nM
SI-95X17 (antibody) chain 1: not shown chain 2: DIQMTQSPSSLSASVGDRVTITCRSSQNIVHSNGNTYLDWYQQTPGKAPKLLIYKVSNRFSGVPSRFSGSGSGTDFTFTISSLQPEDIATYYCFQYSHVPWTFGQGTKLQITRTVAAPSVFIFPPSDEQLKSGTASVVCLLNNFYPREAKVQWKVDNALQSGNSQESVTEQDSKDSTYSLSSTLTLSKADYEKHKVYACEVTHQGLSSPVTKSFNRGEC,Kd,[3],6.02 nM
same,Kd,EGFRvIII [4],0.642 nM
SI-95X22 (antibody) chain 1: not shown chain 2: DIQMTQSPSSLSASVGDRVTITCRSSQNIVHSNGNTYLDWYQQTPGKAPKLLIYKVSNRFSGVPSRFSGSGSGTDFTFTISSLQPEDIATYYCFQYSHVPWTFGQGTKLQITRTVAAPSVFIFPPSDEQLKSGTASVVCLLNNFYPREAKVQWKVDNALQSGNSQESVTEQDSKDSTYSLSSTLTLSKADYEKHKVYACEVTHQGLSSPVTKSFNRGEC,Kd,[3],6.1 nM
same,Kd,EGFRvIII [4],0.834 nM
"ABT-806 V7 (antibody, V domains shown) VH: QVQLQESGPSLVKPSQTLSLTCTVSGYSITSDFAWNWIRQFPGRKLEWMGYISYSGNTRYNPSLKSRFTISRDTSKNQFYLKLRSVTIADTAVYYCVTAGRGFPYWGQGTLVTVSS VL: DIQMTQSPSSVSASVGDRVTITCHSSQDINSNIGWLQQKPGKAPKGLIYHGTNLDDGVPSRFSGSGSGADYTLTISSLQPEDFATYYCVQYAQFPWTFGQGTKVEIKR",Kd,EGFRvIII [5],37.8 nM
"ABT-806 V2 (antibody, V domains shown) VH: QVQLQESGPGLVKPSQSLSLTCTVSGYSITSDFAWNWIRQPPGKGLEWIGYISYSGNTRYNPSLKSRVTISRDTSKNQFSLQLNSVTAEDTAVYYCVTAGRGFPYWGQGTLVTVSS VL: DIVMTQSPSSLSVSPGDRVTITCHSSQDINSNIGWLQQKPGKAPKGLIYHGTNLDDGVPSRFSGSGSGADYTLTISSLEPEDFAVYYCVQYAQFPWTFGQGTKVEIKR",Kd,EGFRvIII [5],26.6 nM
"ABT-806 V3 (antibody, V domains shown) VH: QVQLQESGPGLVKPSQSLSLTCTVSGYSITSDFAWNWIRQPPGKGLEWIGYISYSGNTRYNPSLKSRVTISRDTSKNQFSLQLNSVTAEDTAVYYCVTAGRGFPYWGQGTLVTVSS VL: DIVMTQSPSSVSLSLGDRVTITCHSSQDINSNIGWLQQKPGKAFKGLIYHGTNLDDGVPSRFSGSGSGADYTLTISSLQAEDFATYYCVQYAQFPWTFGPGTKLEIKR",Kd,EGFRvIII [5],15.4 nM
"ABT-806 V1 (antibody, V domains shown) VH: QVQLQESGPGLVKPSQSLSLTCTVSGYSITSDFAWNWIRQPPGKGLEWIGYISYSGNTRYNPSLKSRVTISRDTSKNQFSLQLNSVTAEDTAVYYCVTAGRGFPYWGQGTLVTVSS VL: DIQMTQSPSSVSASVGDRVTITCHSSQDINSNIGWLQQKPGKAPKGLIYHGTNLDDGVPSRFSGSGSGADYTLTISSLQPEDFATYYCVQYAQFPWTFGQGTKVEIKR",Kd,EGFRvIII [5],29.5 nM
"ABT-806 V4 (antibody, V domains shown) VH: QVQLQESGPGLVKPSQSLSLTCTVSGYSITSDFAWNWIRQAPGKGLEWVGYISYSGNTRYNPSLKSRFTISRDTSKNQFYLQLNSVTAEDTAVYYCVTAGRGFPYWGQGTLVTVSS VL: DIQMTQSPSSVSASVGDRVTITCHSSQDINSNIGWLQQKPGKAPKGLIYHGTNLDDGVPSRFSGSGSGADYTLTISSLQPEDFATYYCVQYAQFPWTFGQGTKVEIKR",Kd,EGFRvIII [5],23.2 nM
"ABT-806 V8 (antibody, V domains shown) VH: QVQLQESGPSLVKPSQTLSLTCTVSGYSITSDFAWNWIRQFPGRKLEWMGYISYSGNTRYNPSLKSRFTISRDTSKNQFYLKLRSVTIADTAVYYCVTAGRGFPYWGQGTLVTVSS VL: DIVMTQSPSSLSVSPGDRVTITCHSSQDINSNIGWLQQKPGKAPKGLIYHGTNLDDGVPSRFSGSGSGADYTLTISSLEPEDFAVYYCVQYAQFPWTFGQGTKVEIKR",Kd,EGFRvIII [5],31.9 nM
"ABT-806 V5 (antibody, V domains shown) VH: QVQLQESGPGLVKPSQSLSLTCTVSGYSITSDFAWNWIRQAPGKGLEWVGYISYSGNTRYNPSLKSRFTISRDTSKNQFYLQLNSVTAEDTAVYYCVTAGRGFPYWGQGTLVTVSS VL: DIVMTQSPSSLSVSPGDRVTITCHSSQDINSNIGWLQQKPGKAPKGLIYHGTNLDDGVPSRFSGSGSGADYTLTISSLEPEDFAVYYCVQYAQFPWTFGQGTKVEIKR",Kd,EGFRvIII [5],30.7 nM
"ABT-806 V9 (antibody, V domains shown) VH: QVQLQESGPSLVKPSQTLSLTCTVSGYSITSDFAWNWIRQFPGRKLEWMGYISYSGNTRYNPSLKSRFTISRDTSKNQFYLKLRSVTIADTAVYYCVTAGRGFPYWGQGTLVTVSS VL: DIVMTQSPSSVSLSLGDRVTITCHSSQDINSNIGWLQQKPGKAFKGLIYHGTNLDDGVPSRFSGSGSGADYTLTISSLQAEDFATYYCVQYAQFPWTFGPGTKLEIKR",Kd,EGFRvIII [5],16.1 nM
"ABT-806 V6 (antibody, V domains shown) VH: QVQLQESGPGLVKPSQSLSLTCTVSGYSITSDFAWNWIRQAPGKGLEWVGYISYSGNTRYNPSLKSRFTISRDTSKNQFYLQLNSVTAEDTAVYYCVTAGRGFPYWGQGTLVTVSS VL: DIVMTQSPSSVSLSLGDRVTITCHSSQDINSNIGWLQQKPGKAFKGLIYHGTNLDDGVPSRFSGSGSGADYTLTISSLQAEDFATYYCVQYAQFPWTFGPGTKLEIKR",Kd,EGFRvIII [5],18.4 nM
